Laboratory results taken from patent publication US20190194317A1 (FARON PHARMACEUTICALS, published 2019).

T1: CLEVER-1 coated on the ELISA plate (competition ELISA, Examples 5 and 10) (human, UniProt Q9NY15 26-1027, limits assumed)
T1 construct: Coated at 1 ug/ml in PBS; also called human Clever-1
T1 sequence (looked up): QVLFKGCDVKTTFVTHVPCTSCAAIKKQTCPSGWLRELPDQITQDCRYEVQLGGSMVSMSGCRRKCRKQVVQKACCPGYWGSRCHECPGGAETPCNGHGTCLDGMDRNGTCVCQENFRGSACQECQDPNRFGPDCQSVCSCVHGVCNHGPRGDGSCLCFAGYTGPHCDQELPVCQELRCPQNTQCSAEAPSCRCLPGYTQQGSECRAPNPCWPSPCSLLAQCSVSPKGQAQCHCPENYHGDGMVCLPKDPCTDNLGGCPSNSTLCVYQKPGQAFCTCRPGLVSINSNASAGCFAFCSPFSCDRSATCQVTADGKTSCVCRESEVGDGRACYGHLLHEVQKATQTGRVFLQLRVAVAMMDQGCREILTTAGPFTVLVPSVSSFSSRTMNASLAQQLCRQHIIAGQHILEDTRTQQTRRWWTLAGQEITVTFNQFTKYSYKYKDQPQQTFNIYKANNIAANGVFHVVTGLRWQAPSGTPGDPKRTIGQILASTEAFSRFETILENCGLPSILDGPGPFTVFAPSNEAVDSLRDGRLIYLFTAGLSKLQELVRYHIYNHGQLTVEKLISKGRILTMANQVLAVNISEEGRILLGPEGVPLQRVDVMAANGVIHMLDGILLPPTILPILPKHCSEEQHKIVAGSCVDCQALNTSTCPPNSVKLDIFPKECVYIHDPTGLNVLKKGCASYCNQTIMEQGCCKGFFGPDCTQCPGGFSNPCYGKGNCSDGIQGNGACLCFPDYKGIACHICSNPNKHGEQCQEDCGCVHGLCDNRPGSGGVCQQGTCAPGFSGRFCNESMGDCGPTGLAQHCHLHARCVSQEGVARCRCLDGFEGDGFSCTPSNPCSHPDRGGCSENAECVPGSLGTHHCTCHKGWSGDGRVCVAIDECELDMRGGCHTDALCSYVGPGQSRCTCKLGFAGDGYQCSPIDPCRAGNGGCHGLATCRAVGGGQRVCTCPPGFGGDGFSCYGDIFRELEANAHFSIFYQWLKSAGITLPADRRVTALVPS


Molecular target: T1, CLEVER-1 coated on the ELISA plate …
Test: competition ELISA on coated CLEVER-1 against biotinylated mouse 3-372
Description: These were incubated for 1 hour at room temperature on a 96 well Immulon maxisorp plate (Fisher Cat. No. DIS-971-030J) precoated with 1 μg/ml CLEVER-1. […] The reaction was stopped with 3M HCl, absorbance read at 450 nm on a Dynex Technologies MRX TC II plate reader and the binding curves plotted. IC50 values for each antibody were calculated and these were normalized to the IC50 of the chimera which was included on each respective ELISA plate.

Row | Binder | Relative IC50
1 | Composite Human anti-CLEVER-1 antibody VH2/VK2 (antibody, human IgG4, V domains shown) VH: QVTLKESGPTLVKPTQTLTLTCSFSGFSLSTSGMGIGWIRQPSGKALEWLAHIWWDDDKRYNPALKSRLTISKDTSKNQVVLTMTNMDPVDTATYYCARHYGYDPYYAMDYWGQGTLVTVSS VL: QIVLTQSPGTLSLSPGERATMSCTASSSVSSSYLHWYQQKPGKAPKLCIYRTSNLASGVPSRFSGSGSGTDYTLTISSLQPEDFATYYCHQYHRSPPTFGQGTKLEIK | 0.95 relative to the chimera on the same plate
2 | Composite Human anti-CLEVER-1 antibody VH1/VK5 (antibody, human IgG4, V domains shown) VH: QVTLKESGPTIVKPTQTLTLTCSFSGFSLNTSGMGIGWIRQPSGKALEWLAHIWWDDDKRYNPALKSRLTISKDTSKNQVVLTMTNMDPVDTATYYCARHYGYDPYYAMDYWGQGTSVTVSS VL: EIVLTQSPGTLSLSPGERATLSCTASSSVSSSYLHWYQQKPGKAPKLLIYRTSNLASGVPSRFSGSGSGTDYTLTISSLQPEDFATYYCHQYHRSPPTFGQGTKLEIK | 1.13 relative to the chimera on the same plate
3 | Composite Human anti-CLEVER-1 antibody VH2/VK3 (antibody, human IgG4, V domains shown) VH: QVTLKESGPTLVKPTQTLTLTCSFSGFSLSTSGMGIGWIRQPSGKALEWLAHIWWDDDKRYNPALKSRLTISKDTSKNQVVLTMTNMDPVDTATYYCARHYGYDPYYAMDYWGQGTLVTVSS VL: EIVLTQSPGTLSLSPGERATMSCTASSSVSSSYLHWYQQKPGKAPKLCIYRTSNLASGVPSRFSGSGSGTDYTLTISSLQPEDFATYYCHQYHRSPPTFGQGTKLEIK | 0.7 relative to the chimera on the same plate
4 | Composite Human anti-CLEVER-1 antibody VH4/VK2 (antibody, human IgG4, V domains shown) VH: QVTLKESGPTLVKPTQTLTLTCTFSGFSLSTSGMGIGWIRQPPGKALEWLAHIWWDDDKRYNPALKSRLTISKDTSKNQVVLTMTNMDPVDTATYYCARHYGYDPYYAMDYWGQGTLVTVSS VL: QIVLTQSPGTLSLSPGERATMSCTASSSVSSSYLHWYQQKPGKAPKLCIYRTSNLASGVPSRFSGSGSGTDYTLTISSLQPEDFATYYCHQYHRSPPTFGQGTKLEIK | 0.9 relative to the chimera on the same plate
5 | Composite Human anti-CLEVER-1 antibody VH1/VK3 (antibody, human IgG4, V domains shown) VH: QVTLKESGPTIVKPTQTLTLTCSFSGFSLNTSGMGIGWIRQPSGKALEWLAHIWWDDDKRYNPALKSRLTISKDTSKNQVVLTMTNMDPVDTATYYCARHYGYDPYYAMDYWGQGTSVTVSS VL: EIVLTQSPGTLSLSPGERATMSCTASSSVSSSYLHWYQQKPGKAPKLCIYRTSNLASGVPSRFSGSGSGTDYTLTISSLQPEDFATYYCHQYHRSPPTFGQGTKLEIK | 1.63 relative to the chimera on the same plate
6 | Composite Human anti-CLEVER-1 antibody VH2/VK4 (antibody, human IgG4, V domains shown) VH: QVTLKESGPTLVKPTQTLTLTCSFSGFSLSTSGMGIGWIRQPSGKALEWLAHIWWDDDKRYNPALKSRLTISKDTSKNQVVLTMTNMDPVDTATYYCARHYGYDPYYAMDYWGQGTLVTVSS VL: QIVLTQSPGILSLSPGERATMSCTASSSVSSSYLHWYQQKPGKAPKLLIYRTSNLASGVPSRFSGSGSGTDYTLTISSLQAEDFATYYCHQYHRSPPTFGQGTKLEIK | 0.79 relative to the chimera on the same plate
7 | Composite Human anti-CLEVER-1 antibody VH2/VK1 (antibody, human IgG4, V domains shown) VH: QVTLKESGPTLVKPTQTLTLTCSFSGFSLSTSGMGIGWIRQPSGKALEWLAHIWWDDDKRYNPALKSRLTISKDTSKNQVVLTMTNMDPVDTATYYCARHYGYDPYYAMDYWGQGTLVTVSS VL: QIVLTQSPGILSLSPGERATMSCTASSSVSSSYLHWYQQKPGKAPKLCIYRTSNLASGVPSRFSGSGSGTDYTLTISSLQAEDFATYYCHQYHRSPPTFGQGTKLEIK | 0.82 relative to the chimera on the same plate
8 | Composite Human anti-CLEVER-1 antibody VH1/VK2 (antibody, human IgG4, V domains shown) VH: QVTLKESGPTIVKPTQTLTLTCSFSGFSLNTSGMGIGWIRQPSGKALEWLAHIWWDDDKRYNPALKSRLTISKDTSKNQVVLTMTNMDPVDTATYYCARHYGYDPYYAMDYWGQGTSVTVSS VL: QIVLTQSPGTLSLSPGERATMSCTASSSVSSSYLHWYQQKPGKAPKLCIYRTSNLASGVPSRFSGSGSGTDYTLTISSLQPEDFATYYCHQYHRSPPTFGQGTKLEIK | 1.37 relative to the chimera on the same plate
9 | Composite Human anti-CLEVER-1 antibody VH4/VK4 (antibody, human IgG4, V domains shown) VH: QVTLKESGPTLVKPTQTLTLTCTFSGFSLSTSGMGIGWIRQPPGKALEWLAHIWWDDDKRYNPALKSRLTISKDTSKNQVVLTMTNMDPVDTATYYCARHYGYDPYYAMDYWGQGTLVTVSS VL: QIVLTQSPGILSLSPGERATMSCTASSSVSSSYLHWYQQKPGKAPKLLIYRTSNLASGVPSRFSGSGSGTDYTLTISSLQAEDFATYYCHQYHRSPPTFGQGTKLEIK | 1.2 relative to the chimera on the same plate
10 | Composite Human anti-CLEVER-1 antibody VH3/VK2 (antibody, human IgG4, V domains shown) VH: QVTLKESGPTLVKPTQTLTLTCSFSGFSLSTSGMGIGWIRQPPGKALEWLAHIWWDDDKRYNPALKSRLTISKDTSKNQVVLTMTNMDPVDTATYYCARHYGYDPYYAMDYWGQGTLVTVSS VL: QIVLTQSPGTLSLSPGERATMSCTASSSVSSSYLHWYQQKPGKAPKLCIYRTSNLASGVPSRFSGSGSGTDYTLTISSLQPEDFATYYCHQYHRSPPTFGQGTKLEIK | 0.51 relative to the chimera on the same plate
11 | Composite Human anti-CLEVER-1 antibody VH1/VK1 (antibody, human IgG4, V domains shown) VH: QVTLKESGPTIVKPTQTLTLTCSFSGFSLNTSGMGIGWIRQPSGKALEWLAHIWWDDDKRYNPALKSRLTISKDTSKNQVVLTMTNMDPVDTATYYCARHYGYDPYYAMDYWGQGTSVTVSS VL: QIVLTQSPGILSLSPGERATMSCTASSSVSSSYLHWYQQKPGKAPKLCIYRTSNLASGVPSRFSGSGSGTDYTLTISSLQAEDFATYYCHQYHRSPPTFGQGTKLEIK | 0.84 relative to the chimera on the same plate
12 | Composite Human anti-CLEVER-1 antibody VH3/VK4 (antibody, human IgG4, V domains shown) VH: QVTLKESGPTLVKPTQTLTLTCSFSGFSLSTSGMGIGWIRQPPGKALEWLAHIWWDDDKRYNPALKSRLTISKDTSKNQVVLTMTNMDPVDTATYYCARHYGYDPYYAMDYWGQGTLVTVSS VL: QIVLTQSPGILSLSPGERATMSCTASSSVSSSYLHWYQQKPGKAPKLLIYRTSNLASGVPSRFSGSGSGTDYTLTISSLQAEDFATYYCHQYHRSPPTFGQGTKLEIK | 0.47 relative to the chimera on the same plate
13 | Composite Human anti-CLEVER-1 antibody VH1/VK4 (antibody, human IgG4, V domains shown) VH: QVTLKESGPTIVKPTQTLTLTCSFSGFSLNTSGMGIGWIRQPSGKALEWLAHIWWDDDKRYNPALKSRLTISKDTSKNQVVLTMTNMDPVDTATYYCARHYGYDPYYAMDYWGQGTSVTVSS VL: QIVLTQSPGILSLSPGERATMSCTASSSVSSSYLHWYQQKPGKAPKLLIYRTSNLASGVPSRFSGSGSGTDYTLTISSLQAEDFATYYCHQYHRSPPTFGQGTKLEIK | 1.17 relative to the chimera on the same plate
14 | Composite Human anti-CLEVER-1 antibody VH3/VK1 (antibody, human IgG4, V domains shown) VH: QVTLKESGPTLVKPTQTLTLTCSFSGFSLSTSGMGIGWIRQPPGKALEWLAHIWWDDDKRYNPALKSRLTISKDTSKNQVVLTMTNMDPVDTATYYCARHYGYDPYYAMDYWGQGTLVTVSS VL: QIVLTQSPGILSLSPGERATMSCTASSSVSSSYLHWYQQKPGKAPKLCIYRTSNLASGVPSRFSGSGSGTDYTLTISSLQAEDFATYYCHQYHRSPPTFGQGTKLEIK | 0.76 relative to the chimera on the same plate
15 | Composite Human anti-CLEVER-1 antibody VH4/VK1 (antibody, human IgG4, V domains shown) VH: QVTLKESGPTLVKPTQTLTLTCTFSGFSLSTSGMGIGWIRQPPGKALEWLAHIWWDDDKRYNPALKSRLTISKDTSKNQVVLTMTNMDPVDTATYYCARHYGYDPYYAMDYWGQGTLVTVSS VL: QIVLTQSPGILSLSPGERATMSCTASSSVSSSYLHWYQQKPGKAPKLCIYRTSNLASGVPSRFSGSGSGTDYTLTISSLQAEDFATYYCHQYHRSPPTFGQGTKLEIK | 1.86 relative to the chimera on the same plate
16 | humanized anti-CLEVER-1 antibody FAR02 VH3/VK5 (antibody, V domains shown, Named as a potential lead; also called FAR02 VH3A/K5) VH: QVTLKESGPTLVKPTQTLTLTCSFSGFSLSTSGMGIGWIRQPPGKALEWLAHIWWDDDKRYNPALKSRLTISKDTSKNQVVLTMTNMDPVDTATYYCARHYGYDPYYAMDYWGQGTLVTVSS VL: EIVLTQSPGTLSLSPGERATLSCTASSSVSSSYLHWYQQKPGKAPKLLIYRTSNLASGVPSRFSGSGSGTDYTLTISSLQPEDFATYYCHQYHRSPPTFGQGTKLEIK | 0.42 relative to the chimera on the same plate
17 | Composite Human anti-CLEVER-1 antibody VH2/VK5 (antibody, human IgG4, V domains shown, Named as a potential lead) VH: QVTLKESGPTLVKPTQTLTLTCSFSGFSLSTSGMGIGWIRQPSGKALEWLAHIWWDDDKRYNPALKSRLTISKDTSKNQVVLTMTNMDPVDTATYYCARHYGYDPYYAMDYWGQGTLVTVSS VL: EIVLTQSPGTLSLSPGERATLSCTASSSVSSSYLHWYQQKPGKAPKLLIYRTSNLASGVPSRFSGSGSGTDYTLTISSLQPEDFATYYCHQYHRSPPTFGQGTKLEIK | 0.52 relative to the chimera on the same plate
18 | Composite Human anti-CLEVER-1 antibody VH4/VK5 (antibody, human IgG4, V domains shown, Named as a potential lead) VH: QVTLKESGPTLVKPTQTLTLTCTFSGFSLSTSGMGIGWIRQPPGKALEWLAHIWWDDDKRYNPALKSRLTISKDTSKNQVVLTMTNMDPVDTATYYCARHYGYDPYYAMDYWGQGTLVTVSS VL: EIVLTQSPGTLSLSPGERATLSCTASSSVSSSYLHWYQQKPGKAPKLLIYRTSNLASGVPSRFSGSGSGTDYTLTISSLQPEDFATYYCHQYHRSPPTFGQGTKLEIK | 0.46 relative to the chimera on the same plate
